Measured values: doi:10.1101/847608 (bioRxiv, 2019)

Biological target: the molecule itself
Experiment: turbidity

SGYDFEREGYS [SGYDFEREGYS peptide (wild type peptide, NP 287-297)]: binds.
